{"source": "patent US7927864B2", "about": "“Methods, kits, and compositions for detecting enzyme activity” (Wake Forest University Health Sciences, priority 2006, dated 2011)", "key": {"ADAMTS13 [1]": {"system": "ADAMTS13", "assay": "FRET measurement of ADAMTS13 cleavage of fluorescein-labeled recombinant VWF73 peptide in plasma", "type": "biochemical", "method": "(§1) The working peptide was prepared by dissolving the peptide pellets in DMSO and then diluted with assay buffer, 5 mM Bis-Tris, 25 mM CaCl2, 0.005% Tween 20 at pH 6.0 to a final concentration of 4.5 μM. Pooled Normal Plasma (PNP) was used as a source of ADAMTS13. Heat inactivated PNP, heated overnight at 56° C., and known ADAMTS13-deficient patient plasma were used as negative controls. All samples were diluted 1 in 8 with assay buffer to reduce the ionic strength. Reactions were carried out in 96 well plates using 100 μL of dilute plasma and 100 μL of working peptide solution. The rate of fluorescence increase with time was monitored by a fluorometer.\n(§2) FIG. 2 depicts fluorescence of the recombinant peptide during incubation. […] Each experiment was performed in triplicate and mean values are shown. Thus, it is apparent that the fluorescence increase resulting from the separation of fluors by ADAMTS13 cleavage of a labeled peptide substrate is measurable and can be used for FRET based enzyme assays.\n(§3) FIG. 3 depicts the rates of change of fluorescence produced by dilutions of PNP in heat inactivated PNP. Undiluted PNP represents 100% ADAMTS13 enzyme activity for purposes of determining quantitative enzyme activity. Each point represents the mean±SEM of triplicate determination. Thus, it is apparent that recombinant fluorescein labeled peptides can be used as effective substrates in quantitative FRET based assays of ADAMTS13. Further techniques for quantitative analysis of enzyme activity are well known to skilled artisans."}, "ADAMTS13 [2]": {"molecular_target": "T1, ADAMTS13 (Homo sapiens, UniProt Q76LX8)", "T1 construct": "Pooled Normal Plasma (PNP) was used as a source of ADAMTS13; from tissue; host or cells: pooled normal plasma (PNP); the substrate peptide was made in M15 E. coli", "T1 sequence (Q76LX8 75-1427)": "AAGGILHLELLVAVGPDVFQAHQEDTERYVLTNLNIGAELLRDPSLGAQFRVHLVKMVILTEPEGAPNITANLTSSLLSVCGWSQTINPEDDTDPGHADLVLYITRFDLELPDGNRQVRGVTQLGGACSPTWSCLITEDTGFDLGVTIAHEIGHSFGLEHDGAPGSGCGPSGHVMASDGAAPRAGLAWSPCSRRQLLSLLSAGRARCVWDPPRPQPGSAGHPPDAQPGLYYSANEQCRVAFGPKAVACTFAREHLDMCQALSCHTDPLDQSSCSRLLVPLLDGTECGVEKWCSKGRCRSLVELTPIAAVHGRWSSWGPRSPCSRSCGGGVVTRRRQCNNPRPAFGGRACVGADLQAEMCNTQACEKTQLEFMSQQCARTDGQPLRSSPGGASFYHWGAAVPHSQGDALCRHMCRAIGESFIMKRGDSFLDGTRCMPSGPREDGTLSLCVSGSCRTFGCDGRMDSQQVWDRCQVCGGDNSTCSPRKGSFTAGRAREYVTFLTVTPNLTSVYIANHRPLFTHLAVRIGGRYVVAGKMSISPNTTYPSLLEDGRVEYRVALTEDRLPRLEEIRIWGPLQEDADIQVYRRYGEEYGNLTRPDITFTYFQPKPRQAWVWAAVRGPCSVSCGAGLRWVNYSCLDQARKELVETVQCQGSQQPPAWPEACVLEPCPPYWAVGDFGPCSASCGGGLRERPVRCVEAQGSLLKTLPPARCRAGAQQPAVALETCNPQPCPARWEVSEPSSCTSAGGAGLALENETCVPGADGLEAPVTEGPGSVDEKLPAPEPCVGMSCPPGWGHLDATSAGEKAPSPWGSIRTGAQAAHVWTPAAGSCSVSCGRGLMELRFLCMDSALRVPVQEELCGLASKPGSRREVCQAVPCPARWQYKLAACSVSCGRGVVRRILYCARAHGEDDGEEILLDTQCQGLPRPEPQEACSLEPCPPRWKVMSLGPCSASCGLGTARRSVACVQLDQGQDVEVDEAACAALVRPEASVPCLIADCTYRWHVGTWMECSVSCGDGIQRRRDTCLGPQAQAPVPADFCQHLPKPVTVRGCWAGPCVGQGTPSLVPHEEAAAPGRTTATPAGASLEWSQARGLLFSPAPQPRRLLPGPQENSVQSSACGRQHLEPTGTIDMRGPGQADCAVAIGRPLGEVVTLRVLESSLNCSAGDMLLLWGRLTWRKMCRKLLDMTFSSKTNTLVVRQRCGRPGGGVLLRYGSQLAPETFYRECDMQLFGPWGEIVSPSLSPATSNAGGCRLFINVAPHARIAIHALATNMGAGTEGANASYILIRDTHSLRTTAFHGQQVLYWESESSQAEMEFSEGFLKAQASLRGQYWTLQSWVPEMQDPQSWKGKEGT", "assay": "FRET measurement of ADAMTS13 cleavage of fluorescein-labeled recombinant VWF73 peptide in plasma", "type": "biochemical", "conditions": "incubation with pooled normal plasma (PNP) as source of ADAMTS13; peptide 4.5 μM working solution, plasma diluted 1 in 8, pH 6.0", "method": "as §1, §2, §3"}}}
{"molecule": "recombinant peptide: Recombinant His-tagged 73 amino acid VWF A2 peptide (SEQ ID NO: 1); Q1599 and P1611 mutated to cysteines, both labeled with fluorescein (conjugate, fluorescein labels on cysteines; His-tag; This is a 73 amino acid fragment of native von Willebrand factor, substituted with cysteines at positions 4 and 16., Q1599 and P1611 mutated to cysteines, both labeled with fluorescein) DRECAPNLVYMVTGNCASDEIKRLPGDIQVVPIGVGPNANVQELERIGWPNAPILIQDFETLPREAPDLVLQR", "values": [{"measurement": "fluorescence of the recombinant peptide during incubation", "setting": "ADAMTS13 [1]; incubation with heat inactivated PNP (negative control)", "value": "only minimal change in fluorescence"}, {"measurement": "fluorescence of the recombinant peptide during incubation", "setting": "ADAMTS13 [1]; incubation with plasma samples from TTP patients with no ADAMTS13 activity (negative control)", "value": "only minimal change in fluorescence"}, {"measurement": "fluorescence of the recombinant peptide during incubation", "setting": "ADAMTS13 [2]", "value": "steady increase of fluorescence over time"}]}
